Results published in paper PMC4149788 (The Febs Journal, 2014).

Target: GST-HAUSP (human, UniProt Q93009 1-1102)
Assay: pull-down

Sequence of GST-HAUSP (Q93009 whole entry): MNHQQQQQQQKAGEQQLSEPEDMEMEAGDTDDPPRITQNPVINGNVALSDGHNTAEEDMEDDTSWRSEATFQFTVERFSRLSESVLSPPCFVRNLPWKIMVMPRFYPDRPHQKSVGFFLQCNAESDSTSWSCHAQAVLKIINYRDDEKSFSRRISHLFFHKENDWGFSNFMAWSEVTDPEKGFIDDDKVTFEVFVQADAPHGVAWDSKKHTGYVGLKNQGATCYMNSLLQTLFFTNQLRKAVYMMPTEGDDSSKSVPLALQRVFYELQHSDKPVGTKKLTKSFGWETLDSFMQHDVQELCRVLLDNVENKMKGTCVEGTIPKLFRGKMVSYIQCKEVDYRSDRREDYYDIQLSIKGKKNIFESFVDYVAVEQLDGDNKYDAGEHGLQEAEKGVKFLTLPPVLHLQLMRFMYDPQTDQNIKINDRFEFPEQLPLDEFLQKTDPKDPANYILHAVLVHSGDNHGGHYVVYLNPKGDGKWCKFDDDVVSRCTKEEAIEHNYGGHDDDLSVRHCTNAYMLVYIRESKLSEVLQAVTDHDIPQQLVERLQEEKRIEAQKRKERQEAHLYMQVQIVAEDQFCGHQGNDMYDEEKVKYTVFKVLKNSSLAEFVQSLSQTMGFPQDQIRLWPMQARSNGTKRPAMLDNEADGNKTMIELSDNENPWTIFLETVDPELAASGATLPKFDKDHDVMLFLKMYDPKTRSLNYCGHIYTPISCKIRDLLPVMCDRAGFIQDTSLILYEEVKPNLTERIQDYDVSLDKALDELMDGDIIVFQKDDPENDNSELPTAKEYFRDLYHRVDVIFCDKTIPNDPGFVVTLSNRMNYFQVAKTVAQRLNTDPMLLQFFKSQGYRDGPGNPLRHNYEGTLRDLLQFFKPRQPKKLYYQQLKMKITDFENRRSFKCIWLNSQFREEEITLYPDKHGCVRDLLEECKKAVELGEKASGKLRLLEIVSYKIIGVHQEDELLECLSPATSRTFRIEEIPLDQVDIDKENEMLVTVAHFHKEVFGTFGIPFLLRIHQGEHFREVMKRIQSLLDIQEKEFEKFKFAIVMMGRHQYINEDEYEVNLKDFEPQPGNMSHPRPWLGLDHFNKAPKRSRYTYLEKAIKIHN

binding result: binds
B1: Myc/His-Rb (Rb in pcDNA3.1-Myc/His B(-)) (natural protein, human, UniProt P06400 1-928, looked up)
chain: MPPKTPRKTAATAAAAAAEPPAPPPPPPPEEDPEQDSGPEDLPLVRLEFEETEEPDFTALCQKLKIPDHVRERAWLTWEKVSSVDGVLGGYIQKKKELWGICIFIAAVDLDEMSFTFTELQKNIEISVHKFFNLLKEIDTSTKVDNAMSRLLKKYDVLFALFSKLERTCELIYLTQPSSSISTEINSALVLKVSWITFLLAKGEVLQMEDDLVISFQLMLCVLDYFIKLSPPMLLKEPYKTAVIPINGSPRTPRRGQNRSARIAKQLENDTRIIEVLCKEHECNIDEVKNVYFKNFIPFMNSLGLVTSNGLPEVENLSKRYEEIYLKNKDLDARLFLDHDKTLQTDSIDSFETQRTPRKSNLDEEVNVIPPHTPVRTVMNTIQQLMMILNSASDQPSENLISYFNNCTVNPKESILKRVKDIGYIFKEKFAKAVGQGCVEIGSQRYKLGVRLYYRVMESMLKSEEERLSIQNFSKLLNDNIFHMSLLACALEVVMATYSRSTSQNLDSGTDLSFPWILNVLNLKAFDFYKVIESFIKAEGNLTREMIKHLERCEHRIMESLAWLSDSPLFDLIKQSKDREGPTDHLESACPLNLPLQNNHTAADMYLSPVRSPKKKGSTTRVNSTANAETQATSAFQTQKPLKSTSLSLFYKKVYRLAYLRLNTLCERLLSEHPELEHIIWTLFQHTLQNEYELMRDRHLDQIMMCSMYGICKVKNIDLKFKIIVTAYKDLPHAVQETFKRVLIKEEEYDSIIVFYNSVFMQRLKTNILQYASTRPPTLSPIPHIPRSPYKFPSSPLRIPGGNIYISPLKSPYKISEGLPTPTKMTPRSRILVSIGESFGTSEKFQKINQMVCNSDRVLKRSAEGSNPPKPLKKLRFDIEGSDEADGSKHLPGESKFQQKLAEMTSTRTRMQKQKMNDSMDTSNKEEK
